From patent US20250171536A1 (CSL INNOVATION, published 2025)

T1: Cyno CD117, soluble (cynoCD117 1-520) (cynomolgus monkey, UniProt P10721 26-520 (human entry))
T1 construct: Residues as printed
T1 chain: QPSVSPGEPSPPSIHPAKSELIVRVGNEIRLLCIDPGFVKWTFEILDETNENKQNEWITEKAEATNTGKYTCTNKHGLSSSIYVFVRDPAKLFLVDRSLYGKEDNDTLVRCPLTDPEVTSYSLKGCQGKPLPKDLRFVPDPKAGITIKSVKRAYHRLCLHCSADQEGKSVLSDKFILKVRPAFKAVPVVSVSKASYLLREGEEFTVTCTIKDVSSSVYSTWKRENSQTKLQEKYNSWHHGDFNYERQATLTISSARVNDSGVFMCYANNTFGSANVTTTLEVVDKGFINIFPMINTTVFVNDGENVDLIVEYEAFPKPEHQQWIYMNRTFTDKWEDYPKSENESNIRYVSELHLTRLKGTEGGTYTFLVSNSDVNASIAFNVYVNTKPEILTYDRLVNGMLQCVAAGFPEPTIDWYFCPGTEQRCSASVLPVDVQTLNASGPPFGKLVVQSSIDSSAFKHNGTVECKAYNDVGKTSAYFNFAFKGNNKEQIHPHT

T2: Murine CD117, soluble (MuCD117 1-527) (mouse, UniProt P05532 25-527)
T2 construct: Residues as printed
T2 sequence: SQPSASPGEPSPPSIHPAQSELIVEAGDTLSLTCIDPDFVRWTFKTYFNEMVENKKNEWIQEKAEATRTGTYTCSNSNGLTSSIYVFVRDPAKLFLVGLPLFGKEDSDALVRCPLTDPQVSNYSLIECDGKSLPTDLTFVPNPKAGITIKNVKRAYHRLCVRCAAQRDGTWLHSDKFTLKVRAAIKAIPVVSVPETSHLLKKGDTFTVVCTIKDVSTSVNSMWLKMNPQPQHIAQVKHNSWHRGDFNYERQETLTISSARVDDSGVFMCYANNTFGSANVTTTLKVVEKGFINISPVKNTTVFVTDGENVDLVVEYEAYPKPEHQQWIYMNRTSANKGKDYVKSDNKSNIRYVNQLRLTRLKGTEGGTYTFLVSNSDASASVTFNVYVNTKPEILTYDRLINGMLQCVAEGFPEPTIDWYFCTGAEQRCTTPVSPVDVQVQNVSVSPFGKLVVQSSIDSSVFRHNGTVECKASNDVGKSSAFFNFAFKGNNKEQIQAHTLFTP

B1: hu4A2 IgG4 (hu4A2-hKG4p) (antibody)
heavy: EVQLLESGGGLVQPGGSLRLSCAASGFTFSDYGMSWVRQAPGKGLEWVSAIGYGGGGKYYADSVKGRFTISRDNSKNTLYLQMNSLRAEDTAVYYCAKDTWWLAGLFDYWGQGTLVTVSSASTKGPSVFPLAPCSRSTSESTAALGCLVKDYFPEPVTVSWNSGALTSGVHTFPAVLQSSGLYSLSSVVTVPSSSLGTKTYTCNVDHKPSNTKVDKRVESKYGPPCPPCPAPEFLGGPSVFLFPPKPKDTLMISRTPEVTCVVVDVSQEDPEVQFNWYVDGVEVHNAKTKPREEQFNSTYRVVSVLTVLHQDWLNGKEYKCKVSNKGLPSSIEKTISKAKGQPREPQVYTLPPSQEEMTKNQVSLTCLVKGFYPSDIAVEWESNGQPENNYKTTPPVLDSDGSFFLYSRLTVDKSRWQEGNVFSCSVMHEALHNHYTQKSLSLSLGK
light: IVLTQSPGTLSLSPGKRATLSCRASQSVSNSYLAWYQQKPGQPPKLLIYWASTRESGVPDRFSGSGSGTDFTLTISSLQAEDVAVYYCQQYYSTPLTFGGGTKVEIKRTVAAPSVFIFPPSDEQLKSGTASVVCLLNNFYPREAKVQWKVDNALQSGNSQESVTEQDSKDSTYSLSSTLTLSKADYEKHKVYACEVTHQGLSSPVTKSFNRGEC
notes: Human IgG4, kappa
B2: hu3C2 IgA2 (hu3C2-hLhA2 (P221R)) (antibody)
heavy: EVQLAESGGDLVQPGGSLRLSCAASGFTFSSYAMSWVRQAPGKGLEWVSAISGSGGSTYYADSVKGRFTISRDNSKNTLYLQMNSLRAEDTAIYYCARDLRVYAMEAFDIWGQGTMVTVSSASPTSPKVFPLSLDSTPQDGNVVVACLVQGFFPQEPLSVTWSESGQNVTARNFPPSQDASGDLYTTSSQLTLPATQCPDGKSVTCHVKHYTNSSQDVTVPCRVPPPPPCCHPRLSLHRPALEDLLLGSEANLTCTLTGLRDASGATFTWTPSSGKSAVQGPPERDLCGCYSVSSVLPGCAQPWNHGETFTCTAAHPELKTPLTANITKSGNTFRPEVHLLPPPSEELALNELVTLTCLARGFSPKDVLVRWLQGSQELPREKYLTWASRQEPSQGTTTFAVTSILRVAAEDWKKGDTFSCMVGHEALPLAFTQKTIDRLAGKPTHVNVSVVMAEVDGTCY
light: SYELTQDPAVSVALGQTVRITCQGDSLRDYYANWFQQKPGQAPLLVIFYDSDRPSGIPERFSGSNSGNTATLTISRVEAGDEADYYCQAWDSSSDHWVFGGGTKLTVLGQPKAAPSVTLFPPSSEELQANKATLVCLISDFYPGAVTVAWKADGSPVKAGVETTKPSKQSNNKYAASSYLSLTPEQWKSHRSYSCQVTHEGSTVEKTVAPTECS
B3: hu3B3 IgA2 (hu3B3-hLhA2 (P221R)) (antibody)
heavy: EVQLVESGGGVVQPGRSLRLSCAASGFTFSSYAMHWVRQAPGKGLEWVSVIYSGGSTYYADSVKGRFTISRDNSKNTLYLQMNSLRAEDTAVYYCARDSSGYRGDFDYWGQGTLVTVSSASPTSPKVFPLSLDSTPQDGNVVVACLVQGFFPQEPLSVTWSESGQNVTARNFPPSQDASGDLYTTSSQLTLPATQCPDGKSVTCHVKHYTNSSQDVTVPCRVPPPPPCCHPRLSLHRPALEDLLLGSEANLTCTLTGLRDASGATFTWTPSSGKSAVQGPPERDLCGCYSVSSVLPGCAQPWNHGETFTCTAAHPELKTPLTANITKSGNTFRPEVHLLPPPSEELALNELVTLTCLARGFSPKDVLVRWLQGSQELPREKYLTWASRQEPSQGTTTFAVTSILRVAAEDWKKGDTFSCMVGHEALPLAFTQKTIDRLAGKPTHVNVSVVMAEVDGTCY
light: SYELTQPPSVSVSPGQTASITCSGDKVGAKYVFWYQQKPGQSPVLVVYQDNKRPSGIPERFSGSNSGNTATLTISGTQAMDEADYYCQAWDSSTALYVFGTGTKVTVLGQPKANPTVTLFPPSSEELQANKATLVCLISDFYPGAVTVAWKADGSPVKAGVETTKPSKQSNNKYAASSYLSLTPEQWKSHRSYSCQVTHEGSTVEKTVAPTECS
B4: 3B3 IgA2 anti-CD117 antibody (Example 8) (antibody, V domains shown)
VH: EVQLVESGGGVVQPGRSLRLSCAASGFTFSSYAMHWVRQAPGKGLEWVSVIYSGGSTYYADSVKGRFTISRDNSKNTLYLQMNSLRAEDTAVYYCARDSSGYRGDFDYWGQGTLVTVSS
VL: SYELTQPPSVSVSPGQTASITCSGDKVGAKYVFWYQQKPGQSPVLVVYQDNKRPSGIPERFSGSNSGNTATLTISGTQAMDEADYYCQAWDSSTALYVFGTGTKV
B5: 3C2 IgA2 anti-CD117 antibody (Example 8) (antibody, V domains shown)
VH: EVQLAESGGDLVQPGGSLRLSCAASGFTFSSYAMSWVRQAPGKGLEWVSAISGSGGSTYYADSVKGRFTISRDNSKNTLYLQMNSLRAEDTAIYYCARDLRVYAMEAFDIWGQGTMVTVSS
VL: SYELTQDPAVSVALGQTVRITCQGDSLRDYYANWFQQKPGQAPLLVIFYDSDRPSGIPERFSGSNSGNTATLTISRVEAGDEADYYCQAWDSSSDHWVFGGGTKL
B6: 4A2 IgA2 anti-CD117 antibody (Example 8) (antibody, V domains shown)
VH: EVQLLESGGGLVQPGGSLRLSCAASGFTFSDYGMSWVRQAPGKGLEWVSAIGYGGGGKYYADSVKGRFTISRDNSKNTLYLQMNSLRAEDTAVYYCAKDTWWLAGLFDYWGQGTLVTVSS
VL: EIVLTQSPGTLSLSPGKRATLSCRASQSVSNSYLAWYQQKPGQPPKLLIYWASTRESGVPDRFSGSGSGTDFTLTISSLQAEDVAVYYCQQYYSTPLTFGGGTKVEIKR
B7: 3B2 IgA2 anti-CD117 antibody (Example 8) (antibody, V domains shown)
VH: QVQLQESGPGLVKPSETLSLTCTVSGYSISSGYYWGWIRQPPGKGLEWIGSIYHSGSTYYNPSLKSRVTISVDTSKNQFSLKLSSVTAADTAVYYCARVGVRYFDWLLYGAFDIWGQGTMVTVSS
VL: SYELTQPPSVSVSPGQTATITCSGDKLGETYVHWYQHQSGQSPILVVYQDFKRPSGIPERFSGSNSGNTATLTISGTQAMDEADYYCQAWDSSTAVFGGGTKL
B8: hu3C2 IgG4 (hu3C2-hLG4p) (antibody)
heavy: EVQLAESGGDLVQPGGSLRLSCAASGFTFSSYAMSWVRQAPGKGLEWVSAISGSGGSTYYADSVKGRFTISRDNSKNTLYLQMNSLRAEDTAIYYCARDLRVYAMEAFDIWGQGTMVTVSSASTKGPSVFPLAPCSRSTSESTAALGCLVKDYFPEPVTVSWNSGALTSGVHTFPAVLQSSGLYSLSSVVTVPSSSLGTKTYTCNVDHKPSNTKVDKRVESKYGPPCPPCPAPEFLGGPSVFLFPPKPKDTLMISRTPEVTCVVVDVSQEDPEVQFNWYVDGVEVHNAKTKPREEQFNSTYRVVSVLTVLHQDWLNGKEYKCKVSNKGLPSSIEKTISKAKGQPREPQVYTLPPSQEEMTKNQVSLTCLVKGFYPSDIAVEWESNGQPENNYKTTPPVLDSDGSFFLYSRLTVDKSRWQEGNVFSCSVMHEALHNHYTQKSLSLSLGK
light: B2 light
B9: hu3B3 IgG4 (hu3B3-hLG4) (antibody)
heavy: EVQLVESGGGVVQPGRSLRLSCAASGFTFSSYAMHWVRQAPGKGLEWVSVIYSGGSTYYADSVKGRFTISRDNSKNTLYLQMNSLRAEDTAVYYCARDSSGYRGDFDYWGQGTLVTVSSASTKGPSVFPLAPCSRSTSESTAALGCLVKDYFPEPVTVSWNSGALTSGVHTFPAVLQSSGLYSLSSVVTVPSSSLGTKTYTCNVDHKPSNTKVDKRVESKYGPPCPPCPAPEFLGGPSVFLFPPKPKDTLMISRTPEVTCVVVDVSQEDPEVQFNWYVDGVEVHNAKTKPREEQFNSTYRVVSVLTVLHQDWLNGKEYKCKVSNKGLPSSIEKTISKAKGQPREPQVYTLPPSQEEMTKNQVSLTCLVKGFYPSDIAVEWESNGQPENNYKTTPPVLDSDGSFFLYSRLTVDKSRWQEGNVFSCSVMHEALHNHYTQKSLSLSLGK
light: B3 light

Target: T1, Cyno CD117, soluble (cynoCD117 1-520)
Test: SPR Biacore 4000, captured antibody, soluble CD117 analyte, 1:1 fit;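 also: antibodies captured on CM5 chips via goat anti-human IgG or IgA, CD117 analyte in two-fold series 0.8–200 nM, run at pH 7.3 and 37 °C, double-referenced sensorgrams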
Description: (§1) Biacore 4000 was used for all binding analyses. Experiments were performed at pH 7.3, 37° C. and under flow rate of 30 μL/min. Human anti-CD117 antibodies were surface captured using either polyclonal goat anti-human IgG or IgA antibodies directly immobilised onto the carboxymethyl dextran surface of CM5 sensorchips to approximately 13,000 RU using standard NHS/EDC chemistry at pH 5. The immobilised antibody surface was pre-conditioned with ten injections of human polyclonal IgG (Privigen 60s, 10 μg/mL) each followed by a regeneration cycle with 100 mM H3PO4.
(§2) A total of 18 anti-CD117 antibodies (2 μg/mL) were tested as captured ligands against four soluble mammalian CD117 receptor variants: the N-terminal domain of human CD117 (HuCD1₁₇₁₋₃₀₈), full length human CD117 (HuCD1₁₇₁₋₅₂₄), cyno CD117 (cynoCD117₁₋₅₂₀), and murine CD117 (MuCD117₁₋₅₂₇).
(§3) CD117 proteins were prepared in two-fold dilutions ranging from 0.8 to 200 nM. Anti-CD117 antibodies huAb249, huAb85, huCK6 and huhzSR1 were used as positive controls. BM4 was prepared in an IgG and IgA2 format and used as negative control. Binding affinities were calculated from sensorgrams double-referenced using reference surface and blank buffer injection data gathered within each experiment.

Row | Binder | Kd [nM]
1 | B1 | 43.4
2 | B2 | 20.9
3 | B3 | 4.4

What follows are binders tested against N-terminal domain of human CD117, soluble (HuCD117 1-308) (human, UniProt P10721 26-308) in the same assay as above.
Sequence of N-terminal domain of human CD117, soluble (HuCD117 1-308) (P10721 26-308): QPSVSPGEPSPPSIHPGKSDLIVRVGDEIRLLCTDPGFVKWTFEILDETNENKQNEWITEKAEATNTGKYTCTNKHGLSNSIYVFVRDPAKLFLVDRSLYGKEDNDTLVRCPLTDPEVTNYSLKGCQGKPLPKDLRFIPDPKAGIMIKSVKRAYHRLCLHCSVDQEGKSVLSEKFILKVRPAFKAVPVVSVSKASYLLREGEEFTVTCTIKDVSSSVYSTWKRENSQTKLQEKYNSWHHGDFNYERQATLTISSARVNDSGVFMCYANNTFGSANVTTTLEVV
Description: as §1, §2, §3

Row | Binder | Kd [nM]
4 | B1 | 19.9
5 | B2 | 2.44
6 | B3 | 0.49

Each binder was assayed against T3, Full length human CD117, soluble (HuCD117 1-524) (human, UniProt P10721 26-524) in the same assay as above.
T3 construct: also called full-length protein
T3 sequence (P10721 26-524): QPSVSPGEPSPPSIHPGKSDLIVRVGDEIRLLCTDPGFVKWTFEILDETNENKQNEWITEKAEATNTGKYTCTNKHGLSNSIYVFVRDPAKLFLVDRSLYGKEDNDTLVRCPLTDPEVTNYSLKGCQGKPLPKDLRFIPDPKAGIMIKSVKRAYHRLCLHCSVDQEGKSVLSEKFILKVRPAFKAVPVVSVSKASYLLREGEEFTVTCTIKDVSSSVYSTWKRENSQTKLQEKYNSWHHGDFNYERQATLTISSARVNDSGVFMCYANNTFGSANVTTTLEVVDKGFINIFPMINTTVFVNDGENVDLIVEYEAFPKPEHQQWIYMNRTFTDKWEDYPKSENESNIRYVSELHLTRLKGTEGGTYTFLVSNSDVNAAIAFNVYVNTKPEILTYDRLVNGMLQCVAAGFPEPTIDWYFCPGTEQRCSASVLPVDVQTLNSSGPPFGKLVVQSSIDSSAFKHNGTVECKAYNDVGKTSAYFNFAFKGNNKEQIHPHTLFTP
Description: as §1, §2, §3

Row | Binder | Kd [nM]
7 | B1 | 38.3
8 | B2 | 9.3
9 | B3 | 2.5

These binders were tested against Human CD117 (c-kit), cell-surface expressed (human, UniProt P10721 26-976) (assay: cell-based or functional assay).
Sequence of Human CD117 (c-kit), cell-surface expressed (P10721 26-976 limits assumed): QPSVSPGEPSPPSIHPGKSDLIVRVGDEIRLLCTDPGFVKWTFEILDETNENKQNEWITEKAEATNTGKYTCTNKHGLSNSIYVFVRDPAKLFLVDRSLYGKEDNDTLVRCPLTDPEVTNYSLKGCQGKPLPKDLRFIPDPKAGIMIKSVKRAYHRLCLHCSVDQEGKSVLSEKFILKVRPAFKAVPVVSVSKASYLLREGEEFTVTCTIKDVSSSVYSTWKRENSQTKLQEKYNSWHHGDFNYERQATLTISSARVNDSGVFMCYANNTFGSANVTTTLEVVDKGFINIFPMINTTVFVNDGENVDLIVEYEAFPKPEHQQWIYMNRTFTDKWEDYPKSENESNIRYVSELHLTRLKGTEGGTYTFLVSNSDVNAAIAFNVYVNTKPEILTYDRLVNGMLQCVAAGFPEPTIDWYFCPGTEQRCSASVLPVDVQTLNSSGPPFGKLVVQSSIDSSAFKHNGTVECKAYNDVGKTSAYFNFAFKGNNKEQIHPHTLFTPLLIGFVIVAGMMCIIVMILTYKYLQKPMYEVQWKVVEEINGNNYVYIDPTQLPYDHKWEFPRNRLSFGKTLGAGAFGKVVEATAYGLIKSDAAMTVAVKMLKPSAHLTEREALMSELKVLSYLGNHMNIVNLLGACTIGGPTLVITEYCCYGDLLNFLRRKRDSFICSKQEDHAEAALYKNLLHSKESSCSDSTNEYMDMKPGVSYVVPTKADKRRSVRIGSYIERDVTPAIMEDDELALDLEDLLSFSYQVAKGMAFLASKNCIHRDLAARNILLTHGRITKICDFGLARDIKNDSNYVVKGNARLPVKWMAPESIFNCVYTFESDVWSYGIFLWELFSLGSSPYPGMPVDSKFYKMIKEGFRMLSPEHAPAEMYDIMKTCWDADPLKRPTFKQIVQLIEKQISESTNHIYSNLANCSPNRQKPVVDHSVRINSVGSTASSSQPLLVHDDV

Row | Binder | EC50 of trogocytosis (ADCT; DILC18 membrane uptake by neutrophils from CD117-transfected 293 cells) [nM] | Normalised uptake (B max) in %, ADCT [%]
10 | B4 | 0.44 | 51.1
11 | B5 | – | 3.38
12 | B6 | 0.64 | 95.3
13 | B7 | 4.51 | 42.7

Each binder was assayed against T4, Soluble 8xHis-tagged C-terminal fragment of human CD117 (HuCD117 308-524) (human, UniProt P10721 308-524) (assay: SPR (Biacore 4000), IgG4 antibody captured on protein G, soluble His-tagged fragment injected at 25, 75, 225 nM).
T4 construct: C-terminal part of the extracellular region; also called C-terminal domain; not shown: 8xHis tag
T4 sequence (P10721 308-524): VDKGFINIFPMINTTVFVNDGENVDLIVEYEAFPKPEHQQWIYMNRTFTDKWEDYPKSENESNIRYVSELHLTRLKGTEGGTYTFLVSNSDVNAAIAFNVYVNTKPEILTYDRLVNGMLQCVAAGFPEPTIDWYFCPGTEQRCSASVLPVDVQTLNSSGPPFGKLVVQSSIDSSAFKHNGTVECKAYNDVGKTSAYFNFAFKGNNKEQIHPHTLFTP

Row | Binder | binding result
14 | B1 | no binding (tested: 225 nM)
15 | B8 | no binding (tested: 225 nM)
16 | B9 | no binding (tested: 225 nM)

Each binder was assayed against T2, Murine CD117, soluble (MuCD117 1-527) (assay: SPR, captured antibody, soluble CD117 analyte).
Description: as §1, §2, §3

Row | Binder | binding result
17 | B2 | no binding (tested: 200 nM (highest CD117 concentration))
18 | B3 | no binding (tested: 200 nM (highest CD117 concentration))

The binders below were run against T5, Soluble 8xHis-tagged N-terminal fragment of human CD117 (HuCD117 1-307) (human, UniProt P10721 26-307) (assay: SPR Biacore 4000, antibody captured on protein G, His-tagged fragment analyte, 1:1 fit, N=1).
T5 construct: This range counts from the precursor start, so a signal peptide is probably cleaved in the secreted protein; also called N-terminal domain; soluble N-terminal; not shown: 8xHis tag
T5 sequence (P10721 26-307): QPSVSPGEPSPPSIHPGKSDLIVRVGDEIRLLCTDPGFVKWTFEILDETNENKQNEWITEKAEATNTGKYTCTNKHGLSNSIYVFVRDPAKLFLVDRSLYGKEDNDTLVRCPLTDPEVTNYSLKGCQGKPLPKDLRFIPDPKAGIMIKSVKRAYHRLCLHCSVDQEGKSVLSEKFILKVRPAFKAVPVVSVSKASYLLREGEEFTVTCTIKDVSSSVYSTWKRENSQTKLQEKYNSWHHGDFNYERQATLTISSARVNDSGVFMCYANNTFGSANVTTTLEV

Row | Binder | Kd [nM]
19 | B1 | 49
20 | B8 | 14
21 | B9 | 9
